Values joined by “and” are separate entries in the source; they are usually repeats but may differ in a detail not shown here. Equal entries are not always repeated.
Tests used:
[1] = test system: toxic myocarditis caused by Adriamycin in rat; test: Survival rate, Adriamycin caused toxic myocarditis rat model; format: in vivo, SD rat
Procedure: rhNRG-1β was injected into the tail vein within 24 hours after the first injection of Adriamycin, the injection of rhNRG-1 β was carried out once daily for 10 days. Dosage was adjusted according to the body weight, volume of the drug administered was 0.2 ml/100 g.
Based on the <<Guidance Principle of New Drug Preclinical Experiment>>, 3.3 mg/kg of Adriamycin was injected into the tail vein, once per week for consecutive 4 injections, establishing Adriamycin caused toxic myocarditis rat model.
rhNRG-1 β was injected into the tail vein within 24 hours after the first injection of Adriamycin. During the experiment, animal survival was dynamically monitored, heart function indexes (maximal rate of pressure increase within left ventricle, […], maximal rate of pressure decrease within left ventricle, −dp/dt, systolic end pressure of left ventricle LVPmax, diastolic end pressure of left ventricle LVPmin) were monitored at the 5th week. Section was made from the heart tissue and pathological changes examined.
Situation of survival was recorded weekly and the survival rate of the various experimental groups was calculated. Survival rate (%)=survival animal number/number of experimental animals×100.

[2] = test system: acute myocardial injury caused by viral (Coxsackie B3) infection in mice; test: Serum troponin I (cTnI), mice infected with Coxsackie B3 virus; format: in vivo, BALB/C mice
Procedure: Severity of myocardial injury was evaluated through determination of the amount of serum cTnI release, with advantage of high specificity and high sensitivity when comparing with other traditional index such as CK, LDH and AST. Therefore, serum cTnI content determination was used as an objective index reflecting the severity of myocardial injury.
At the 8th day of viral injection, body weight of the mice was measured and blood withdrawn from the orbit, serum separated, stored in −20° C. refrigerator and serum cTnI determination with luminous reaction carried out.

B1: rhNRG-1 β: Recombinant human neuregulin fragment of 61 amino acid (SEQ ID NO:4), 3 disulfide bonds, expressed in E. coli (protein, listed as Homo sapiens)
chain: SHLVKCAEKEKTFCVNGGECFMVKDLSNPSRYLCKCPNEFTGDRCQNYVMASFYKAEELYQ
modifications: disulfide (positions not given here)
- survival rate ([1]; Adriamycin 3.3 mg/kg weekly × 4, 10 μg/kg iv qd 10 days): 60%
- survival rate ([1]; Adriamycin 3.3 mg/kg weekly × 4, 20 μg/kg iv qd 10 days): 90%
- survival rate ([1]; Adriamycin 3.3 mg/kg weekly × 4, 40 μg/kg iv qd 10 days): 85%
- cTnI Mean ± SD ([2]; 7.5 μg/kg iv qd × 5, 8th day, (I)): 29.05 ± 17.06 ng/mL
- cTnI Mean ± SD ([2]; 7.5 μg/kg iv qd × 5, 8th day, (I), listed as rhNRG-1β): 29.05 ± 17.06 ng/mL
- cTnI Mean ± SD ([2]; 7.5 μg/kg iv qd × 5, 8th day, (II)): 26.85 ± 15.20 ng/mL
- cTnI Mean ± SD ([2]; 15 μg/kg iv qd × 5, 8th day, (I)): 19.43 ± 10.76 ng/mL
- cTnI Mean ± SD ([2]; 15 μg/kg iv qd × 5, 8th day, (I), listed as rhNRG-1β): 19.43 ± 10.76 ng/mL
- cTnI Mean ± SD ([2]; 15 μg/kg iv qd × 5, 8th day, (II)): 15.59 ± 14.94 ng/mL
- cTnI Mean ± SD ([2]; 30 μg/kg iv qd × 3, (I)): 13.37 ± 9.53 ng/mL
- cTnI Mean ± SD ([2]; 30 μg/kg iv qd × 3, (II)): 12.32 ± 18.36 ng/mL
- cTnI Mean ± SD ([2]; 30 μg/kg iv qd × 5, 8th day, (I)): 7.98 ± 6.07 ng/mL
- cTnI Mean ± SD ([2]; 30 μg/kg iv qd × 5, 8th day, (I), listed as rhNRG-1β): 7.98 ± 6.07 ng/mL
- cTnI Mean ± SD ([2]; 30 μg/kg iv qd × 5, 8th day, (II)): 0.54 ± 0.53 ng/mL
- cTnI Mean ± SD ([2]; 30 μg/kg iv qd × 5, Example 5 (I)): 1.06 ± 1.32 ng/mL
- cTnI Mean ± SD ([2]; 30 μg/kg iv qd × 5, Example 5 (I), listed as rhNRG-1β): 1.06 ± 1.32 ng/mL
- cTnI Mean ± SD ([2]; 30 μg/kg iv qd × 5, Example 5 (II)): 0.44 ± 0.24 ng/mL
- cTnI Mean ± SD ([2]; 30 μg/kg iv qd × 7, (I)): 1.05 ± 1.2 ng/mL and 1.05 ± 1.20 ng/mL
- cTnI Mean ± SD ([2]; 30 μg/kg iv qd × 7, (I), listed as rhNRG-1β): 1.05 ± 1.20 ng/mL
- cTnI Mean ± SD ([2]; 30 μg/kg iv qd × 7, (II)): 0.51 ± 0.28 ng/mL
